Measurements published in patent US20130157289A1 (Genentech, published 2013).
Residue numbers refer to the chain shown, from its start. Names may count otherwise.

Columns and labels:
human STEAP-1 [1] = biological target: T1, human STEAP-1 (human, UniProt Q9UHE8 1-339); assay: FACS of display-normalised Fab phage, aligned histograms; no cell name on the panel, traces as in FIG. 6A (LB50)
T1 construct: Six-transmembrane cell surface antigen; Exogenous full length STEAP-1 stably expressed in 293 cells (LB50, LB48, LB53) and PC3 cells (PS5.4); endogenous in LNCaP / LNCaP-BR cells; also called Six Transmembrane Epithelial Antigen of the Prostate 1
Method: Phage expressing Fab variants were first assessed for their Fab display level using an phage ELISA used to detect a […] fused to the light chain of the Fab. MaxiSorp microtiter plates were coated with anti-gD 1766 at 10 μg/ml in PBS over night and then blocked with Casein Blocker. Phage from culture supernatants were serially diluted in PBST containing 0.5% BSA in a tissue culture microtiter plate and transferred to the coated wells for 1 h to capture the Fab displaying phage. The plate was washed with PBST and HRP conjugated anti-M13 (Amersham Pharmacia Biotech) was added (1:5000 in PBST containing 0.5% BSA) for 40 min. The plate was washed with PBST and developed by adding Tetramethylbenzidine substrate (Kirkegaard and Perry Laboratories, Gaithersburg, Md.). The absorbance at 405 nm was used as an estimate of the Fab display level on the surface of the phage. Phage preparations were normalized for display by dilution. Low displaying phage (e.g. the chimera) were used neat for FACS analysis.
For FACS analysis of phage binding, cells were removed from the plate using 2 mM EDTA, collected in a 15 mL conical bottom tube and pelleted by centrifugation. Cells (5×10⁵ cells per sample) were re-suspended in 100 μL of phage (normalized by display level) in FACS buffer (1% FBS, PBS with 2 mM EDTA) and incubated for 1-2 hours on ice. Samples were washed twice with FACS buffer by centrifugation. Anti-M13 5G7 control antibody (Genentech, Inc. South San Francisco, Calif.) was added at 2 μg/mL and incubated on ice for at least 45 minutes. Samples were washed twice with FACS buffer by centrifugation. A 1:200 dilution of anti-mouse PE (R-phycoerythrin goat anti-mouse IgG Fcy Fragment, Jackson Immunoresearch) was added and incubated on ice for 30 minutes. Samples were again washed twice with FACS buffer by centrifugation and analyzed by FACS.

human STEAP-1 [2] = biological target: T1, human STEAP-1; assay: Scatchard analysis on 293-LB50 cells, average value
From the text: (§1) IgG was purified with Protein G affinity chromatography.

human STEAP-1 [3] = biological target: T1, human STEAP-1; assay: Scatchard analysis on LNCaP-BR cells, average value
From the text: as §1

human STEAP-1 [4] = biological target: T1, human STEAP-1; assay: Scatchard analysis on LNCaP.BR cells, Assay 740; displacement curve and Scatchard plot
From the text: as §1

human STEAP-1 [5] = biological target: T1, human STEAP-1; assay: Scatchard analysis on 293.LB50 cells, Assay 737; displacement curve and Scatchard plot
From the text: as §1

human STEAP-1 [6] = biological target: T1, human STEAP-1; assay: Scatchard analysis on 293.LB50 cells, Assay 738; displacement curve and Scatchard plot
From the text: as §1

human STEAP-1 [7] = biological target: T1, human STEAP-1; assay: Scatchard analysis on 293 cells transiently expressing human STEAP-1 (293-Transient Human Steap1)
From the text: as §1

[8] = biological target: T2, cynomolgus monkey STEAP-1 (cynomolgus monkey, UniProt Q9UHE8 1-339 (human entry)); assay: Scatchard analysis on 293 cells transiently expressing cynomolgus STEAP-1 (293-Transient Cyno Steap1); side note: Same Affinity for Human & Cyno
T2 construct: the expressing cell line is not described; also called cyno STEAP-1

human STEAP-1 [9] = biological target: T1, human STEAP-1; assay: Scatchard analysis on LNCaP.BR cells, Assay 739; displacement curve (Bound/Total against Total, nM) and Scatchard plot (Bound/Free against Bound, pM)
From the text: as §1

human STEAP-1 [10] = biological target: T1, human STEAP-1; assay: Scatchard analysis on 293 STEAP-1 NT LB50 cells
From the text: as §1

T1 sequence (Q9UHE8 other isoform, or with tags, fused parts or gaps): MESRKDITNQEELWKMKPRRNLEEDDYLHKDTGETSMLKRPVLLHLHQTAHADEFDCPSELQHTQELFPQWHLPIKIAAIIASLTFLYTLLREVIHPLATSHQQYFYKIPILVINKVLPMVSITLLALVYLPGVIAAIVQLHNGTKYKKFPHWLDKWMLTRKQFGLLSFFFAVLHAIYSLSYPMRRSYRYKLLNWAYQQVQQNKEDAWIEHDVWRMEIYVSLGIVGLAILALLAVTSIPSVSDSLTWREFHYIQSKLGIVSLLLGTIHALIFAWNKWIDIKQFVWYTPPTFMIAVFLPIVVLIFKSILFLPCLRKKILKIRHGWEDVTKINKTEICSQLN
T2 sequence (Q9UHE8 other isoform, or with tags, fused parts or gaps): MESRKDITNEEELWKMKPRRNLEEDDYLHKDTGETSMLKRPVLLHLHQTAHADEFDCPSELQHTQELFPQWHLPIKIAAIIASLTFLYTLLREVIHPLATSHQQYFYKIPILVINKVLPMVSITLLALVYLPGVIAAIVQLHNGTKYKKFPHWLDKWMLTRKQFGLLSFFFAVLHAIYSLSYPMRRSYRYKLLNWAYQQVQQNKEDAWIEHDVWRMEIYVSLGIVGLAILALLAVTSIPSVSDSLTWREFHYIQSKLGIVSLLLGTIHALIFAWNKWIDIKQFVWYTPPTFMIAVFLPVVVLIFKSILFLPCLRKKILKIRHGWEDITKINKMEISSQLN

B1: 37 Phage (Fab, V domains shown)
VH: EVQLVESGGGLVQPGGSLRLSCAASGYSITSDYAWNWIRQAPGKGLEWVGYISNSGSTSYNPSLKSRFTISRDNSKNTLYLQMNSLRAEDTAVYYCARERNYDYDDYYYAMDYWGQGTLVTVSS
VL: DIQMTQSPSSLSASVGDRVTITCKSSQSLLYRSNQKNYLAWYQQKPGKAPKLLIYWASTRESGVPSRFSGSGSGTDFTLTISSLQPEDFATYYCQQYYNYPRTFGQGTKVEIKR
notes: monovalent Fab-g3 phage display; also called V37I variant of the 120 graft
binding result (human STEAP-1 [1]): binds

B2: 67 Phage (Fab, V domains shown)
VH: B1 VH with I38V, F68I
VL: B1 VL
notes: monovalent Fab-g3 phage display; also called F67I variant of the 120 graft
binding result (human STEAP-1 [1]): binds

B3: 48 Phage (Fab, V domains shown)
VH: B1 VH with I38V, V49M
VL: B1 VL
notes: monovalent Fab-g3 phage display; also called V48M variant of the 120 graft
binding result (human STEAP-1 [1]): binds

B4: Original Thio 120V24 (antibody, V domains shown)
VH: B1 VH with A24V, I38V
VL: B1 VL
notes: cysteine engineered form of humanized 120.v24; also called Orig Thio PUR 12813; Thio Mab
Kd (human STEAP-1 [2]): 1.9 nM | Kd (human STEAP-1 [3]): 1.4 nM | Kd (human STEAP-1 [4]): 1.7 nM | Kd (human STEAP-1 [5]): 1.7 nM | Kd (human STEAP-1 [6]): 2 nM | Kd (human STEAP-1 [7]): 1.4 nM | Kd [8]: 1.1 nM | Kd (human STEAP-1 [9]): 1.1 nM

B5: humanized anti-STEAP-1 120v.24 (antibody, name in Kabat numbering, V domains shown)
VH: B1 VH with A24V, I38V
VL: B1 VL
notes: constant regions not specified; also called humanized 120v.24 (clone 67); humanized version 24
fold improvement in Kd over the 120 chimera and murine M2-120.545 (human STEAP-1 [10]): 2 fold
